Marks after values point to notes of the source that are not given here.
Key:
[1] = test system: patients with Stage IV NSCLC; details: in vivo
[2] = test system: patients with Stage IV NSCLC; assay: Phase III study: safety, adverse events graded according to NCI CTCAE v4.0
[3] = All treated patients, Chemo N = 263, Atezo N = 286
[4] = All treated patients, Chemo N = 263, Atezo N = 286, listed as atezolizumab

atezolizumab
AESI Adrenal insufficiency Gr3-4, patients with event [1]: 0
AESI Adrenal insufficiency, patients with event [1]: 2
AESI Adrenal insufficiency, percent of patients [1]: (0.7%)
AESI Colitis Gr3-4, patients with event [1]: 2
AESI Colitis Gr3-4, percent of patients [1]: (0.7%)
AESI Colitis, patients with event [1]: 3
AESI Colitis, percent of patients [1]: (1.0%)
AESI Diabetes Mellitus Gr3-4, patients with event [1]: 1
AESI Diabetes Mellitus Gr3-4, percent of patients [1]: (0.3%)
AESI Diabetes Mellitus, patients with event [1]: 2
AESI Diabetes Mellitus, percent of patients [1]: (0.7%)
AESI Hepatitis Gr3-4, patients with event [1]: 12
AESI Hepatitis Gr3-4, percent of patients [1]: (4.2%)*
AESI Hepatitis, patients with event [1]: 46
AESI Hepatitis, percent of patients [1]: (16.1%)
AESI Hyperthyroidism Gr3-4, patients with event [1]: 0
AESI Hyperthyroidism, patients with event [1]: 13
AESI Hyperthyroidism, percent of patients [1]: (4.5%)
AESI Hypothyroidism Gr3-4, patients with event [1]: 0
AESI Hypothyroidism, patients with event [1]: 27
AESI Hypothyroidism, percent of patients [1]: (9.4%)
AESI Infusion-Related Reactions Gr3-4, patients with event [1]: 0
AESI Infusion-Related Reactions, patients with event [1]: 4
AESI Infusion-Related Reactions, percent of patients [1]: (1.4%)
AESI Myocarditis Gr3-4, patients with event [1]: 1
AESI Myocarditis Gr3-4, percent of patients [1]: (0.3%)
AESI Myocarditis, patients with event [1]: 1
AESI Myocarditis, percent of patients [1]: (0.3%)
AESI Myositis Gr3-4, patients with event [1]: 0
AESI Myositis, patients with event [1]: 1
AESI Myositis, percent of patients [1]: (0.3%)
AESI Nephritis Gr3-4, patients with event [1]: 0
AESI Nephritis, patients with event [1]: 1
AESI Nephritis, percent of patients [1]: (0.3%)
AESI Pneumonitis Gr3-4, patients with event [1]: 2
AESI Pneumonitis Gr3-4, percent of patients [1]: (0.7%)
AESI Pneumonitis, patients with event [1]: 11
AESI Pneumonitis, percent of patients [1]: (3.8%)
AESI Rash Gr3-4, patients with event [1]: 3
AESI Rash Gr3-4, percent of patients [1]: (1.0%)
AESI Rash, patients with event [1]: 44
AESI Rash, percent of patients [1]: (15.4%)
AESI Severe Cutaneous Adverse Reaction Gr3-4, patients with event [1]: 0
AESI Severe Cutaneous Adverse Reaction, patients with event [1]: 2
AESI Severe Cutaneous Adverse Reaction, percent of patients [1]: (0.7%)
AESI Vasculitis Gr3-4, patients with event [1]: 1
AESI Vasculitis Gr3-4, percent of patients [1]: (0.3%)
AESI Vasculitis, patients with event [1]: 1
AESI Vasculitis, percent of patients [1]: (0.3%)
Immune-mediated Adrenal insufficiency requiring systemic corticosteroids, % [1]: (0.3) %
Immune-mediated Diabetes mellitus requiring systemic corticosteroids, % [1]: (0.3) %
Immune-mediated Hypothyroidism requiring systemic corticosteroids, % [1]: (0.3) %
Immune-mediated Infusion-related reaction requiring systemic corticosteroids, % [1]: (0.3) %
Immune-mediated Nephritis requiring systemic corticosteroids, % [1]: (0.3) %
AE leading to any treatment withdrawal, % of patients [2, 3]: (6.3%)
AE leading to any treatment withdrawal, number of patients [2, 3]: 18
All Deaths, % of patients [2, 3]: 43.7%
All Deaths, number of patients [2, 3]: 125
All Grade AE, any cause, % of patients [2, 3]: (90.2%)
All Grade AE, any cause, number of patients [2, 3]: 258
Cause of death: Adverse Event, % of patients [2, 3]: 3.8%
Cause of death: Adverse Event, number of patients [2, 3]: 11
Cause of death: Other, including deaths collected by public records, % of patients [2, 3]: 3.8%
Cause of death: Other, including deaths collected by public records, number of patients [2, 3]: 11
Cause of death: Progressive disease, % of patients [2, 3]: 36.0%
Cause of death: Progressive disease, number of patients [2, 3]: 103
Grade 3-4 AE, % of patients [2, 3]: (31.8%)
Grade 3-4 AE, number of patients [2, 3]: 91
Grade 5 AE, % of patients [2, 3]: (3.8%)
Grade 5 AE, number of patients [2, 3]: 11
Related AE (TRAE), % of patients [2, 3]: (60.5%)
Related AE, number of patients [2, 3]: 173
Serious Adverse Event, % of patients [2, 3]: (28.3%)
Serious Adverse Event, number of patients [2, 3]: 81
Treatment-Related SAE, % of patients [2, 3]: (8.4%)
Treatment-Related SAE, number of patients [2, 3]: 24
Treatment-related Grade 3-4 AE, % of patients [2, 3]: (12.9%)
Treatment-related Grade 3-4 AE, number of patients [2, 3]: 37
Treatment-related Grade 5 AE, number of patients [2, 3]: 0
Related AE (TRAE), % of patients [2, 4]: 60.5%
Treatment-related Grade 3-4 AE, % of patients [2, 4]: 12.9%
Treatment-related AE Anemia, All Grades, % ([2]; Atezo n = 286, Chemo n = 263): (3.5) %
Treatment-related AE Asthenia, All Grades, % ([2]; Atezo n = 286, Chemo n = 263): (7.3) %
Treatment-related AE Asthenia, Grade 3-4, % ([2]; Atezo n = 286, Chemo n = 263): 0.3%
Treatment-related AE Constipation, All Grades, % ([2]; Atezo n = 286, Chemo n = 263): (3.5) %
Treatment-related AE Constipation, Grade 3-4, % ([2]; Atezo n = 286, Chemo n = 263): 0.3%
Treatment-related AE Decreased appetite, All Grades, % ([2]; Atezo n = 286, Chemo n = 263): (7.0) %
Treatment-related AE Decreased appetite, Grade 3-4, % ([2]; Atezo n = 286, Chemo n = 263): 0.7%
Treatment-related AE Decreased white blood cell count, All Grades, % ([2]; Atezo n = 286, Chemo n = 263): (1.0) %
Treatment-related AE Fatigue, All Grades, % ([2]; Atezo n = 286, Chemo n = 263): (7.7) %
Treatment-related AE Fatigue, Grade 3-4, % ([2]; Atezo n = 286, Chemo n = 263): 0.7%
Treatment-related AE Hyperkalemia, All Grades, % ([2]; Atezo n = 286, Chemo n = 263): (2.1) %
Treatment-related AE Hyperkalemia, Grade 3-4, % ([2]; Atezo n = 286, Chemo n = 263): 1.0%
Treatment-related AE Hyponatremia, All Grades, % ([2]; Atezo n = 286, Chemo n = 263): (1.7) %
Treatment-related AE Hyponatremia, Grade 3-4, % ([2]; Atezo n = 286, Chemo n = 263): 1.0%
Treatment-related AE Leukopenia, All Grades, % ([2]; Atezo n = 286, Chemo n = 263): (1.0) %
Treatment-related AE Leukopenia, Grade 3-4, % ([2]; Atezo n = 286, Chemo n = 263): 0.3%
Treatment-related AE Nausea, All Grades, % ([2]; Atezo n = 286, Chemo n = 263): (7.0) %
Treatment-related AE Nausea, Grade 3-4, % ([2]; Atezo n = 286, Chemo n = 263): 0.3%
Treatment-related AE Neutropenia, All Grades, % ([2]; Atezo n = 286, Chemo n = 263): (1.0) %
Treatment-related AE Neutropenia, Grade 3-4, % ([2]; Atezo n = 286, Chemo n = 263): 0.7%
Treatment-related AE Pancytopenia, All Grades, % ([2]; Atezo n = 286, Chemo n = 263): (0.3) %
Treatment-related AE Pancytopenia, Grade 3-4, % ([2]; Atezo n = 286, Chemo n = 263): 0.3%
Treatment-related AE Thrombocytopenia, All Grades, % ([2]; Atezo n = 286, Chemo n = 263): (1.7) %
Treatment-related AE Thrombocytopenia, Grade 3-4, % ([2]; Atezo n = 286, Chemo n = 263): 0.3%
Treatment-related AE Vomiting, All Grades, % ([2]; Atezo n = 286, Chemo n = 263): (1.4) %
Treatment-related AE Vomiting, Grade 3-4, % ([2]; Atezo n = 286, Chemo n = 263): 0.3%
Grade 5 AE: Acute myocardial infarction, % ([2]; Chemo N = 263, Atezo N = 286): 0.3%
Grade 5 AE: Aspiration, % ([2]; Chemo N = 263, Atezo N = 286): 0.3%
Grade 5 AE: COPD, % ([2]; Chemo N = 263, Atezo N = 286): 0.3%
Grade 5 AE: Cardiac arrest, % ([2]; Chemo N = 263, Atezo N = 286): 0.3%
Grade 5 AE: Cardiac disorders, % ([2]; Chemo N = 263, Atezo N = 286): 0.7%
Grade 5 AE: Cerebral infarction, % ([2]; Chemo N = 263, Atezo N = 286): 0.3%
Grade 5 AE: Death, % ([2]; Chemo N = 263, Atezo N = 286): 0.7%
Grade 5 AE: Gastrointestinal disorders, % ([2]; Chemo N = 263, Atezo N = 286): 0.3%
Grade 5 AE: General disorders and administration site conditions, % ([2]; Chemo N = 263, Atezo N = 286): 0.7%
Grade 5 AE: Infections and infestations, % ([2]; Chemo N = 263, Atezo N = 286): 0.3%
Grade 5 AE: Mechanical ileus, % ([2]; Chemo N = 263, Atezo N = 286): 0.3%
Grade 5 AE: Nervous system disorders, % ([2]; Chemo N = 263, Atezo N = 286): 0.3%
Grade 5 AE: Product issues, Device occlusion, % ([2]; Chemo N = 263, Atezo N = 286): 0.3%
Grade 5 AE: Pulmonary embolism, % ([2]; Chemo N = 263, Atezo N = 286): 0.3%
Grade 5 AE: Respiratory, thoracic and mediastinal disorders, % ([2]; Chemo N = 263, Atezo N = 286): 1.0%
Grade 5 AE: Sepsis, % ([2]; Chemo N = 263, Atezo N = 286): 0.3%
Grade 5 AE: Total number of patients ([2]; Chemo N = 263, Atezo N = 286): 11
Grade 5 AE: Total, % of patients ([2]; Chemo N = 263, Atezo N = 286): 3.8%
Safety profile compared to platinum-based chemotherapy (in words) ([2]; safety population: 286 patients Arm A, 263 Arm B): favorable safety profile
